Measurements as given in patent publication US20240309099A1 (SYSTIMMUNE, published 2024).
One block for each binder: values may come before it.

Tests used:
[1] = biological target: T1, His-tagged human EGFR (expressed/purified in-house) (human, UniProt P00533 25-645, limits assumed); assay: BLI (Octet384), antibody captured on AHC tips, His-tagged EGFR 0-100 nM in solution, global 1:1 fit
T1 construct: Made in-house; also called ErbB1; HER1; not shown: His tag

[2] = biological target: human HER3 (purchased from Acro Bio) (human, UniProt P21860 20-643); assay: BLI (Octet384), antibody captured on AHC tips, HER3 (Acro Bio) 0-100 nM in solution, global 1:1 fit

Kd [1]: 0.0238 µM
Response [1]: 0.171
koff [1]: 0.00171 s⁻¹
kon [1]: 71600 M⁻¹ s⁻¹
Kd [2]: 0.156 µM
Response [2]: 0.264
koff [2]: 0.0281 s⁻¹
kon [2]: 180000 M⁻¹ s⁻¹
B1: SI-1X4 (bispecific antibody)
heavy: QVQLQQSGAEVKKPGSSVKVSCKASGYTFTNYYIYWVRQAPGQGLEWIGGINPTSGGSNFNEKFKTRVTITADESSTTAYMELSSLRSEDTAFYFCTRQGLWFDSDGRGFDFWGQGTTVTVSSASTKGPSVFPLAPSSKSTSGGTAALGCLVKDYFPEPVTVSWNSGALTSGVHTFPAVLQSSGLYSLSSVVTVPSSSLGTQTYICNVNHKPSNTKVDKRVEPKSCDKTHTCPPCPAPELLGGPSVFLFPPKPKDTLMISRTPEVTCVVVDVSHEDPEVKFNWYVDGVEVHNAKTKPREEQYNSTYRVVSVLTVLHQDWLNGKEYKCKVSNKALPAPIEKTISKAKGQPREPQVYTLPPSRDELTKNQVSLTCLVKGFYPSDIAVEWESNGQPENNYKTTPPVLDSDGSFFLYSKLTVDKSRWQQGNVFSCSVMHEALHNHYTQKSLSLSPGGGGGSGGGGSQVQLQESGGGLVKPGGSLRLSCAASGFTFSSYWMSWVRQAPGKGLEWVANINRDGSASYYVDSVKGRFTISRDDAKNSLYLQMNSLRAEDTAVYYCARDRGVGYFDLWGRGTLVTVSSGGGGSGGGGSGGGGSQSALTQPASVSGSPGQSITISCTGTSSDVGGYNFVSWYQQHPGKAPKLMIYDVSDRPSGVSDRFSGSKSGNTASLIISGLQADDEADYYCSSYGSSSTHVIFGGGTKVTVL
light: DIQMTQSPSSLSASVGDRVTITCRSSQNIVHSNGNTYLDWYQQTPGKAPKLLIYKVSNRFSGVPSRFSGSGSGTDFTFTISSLQPEDIATYYCFQYSHVPWTFGQGTKLQITRTVAAPSVFIFPPSDEQLKSGTASVVCLLNNFYPREAKVQWKVDNALQSGNSQESVTEQDSKDSTYSLSSTLTLSKADYEKHKVYACEVTHQGLSSPVTKSFNRGEC
notes: Tetravalent IgG-scFv: anti-EGFR Fab with nimotuzumab variable regions, anti-HER3 scFv at the C-terminus of the heavy chain; also called EGFRxHER3 bispecific antibody; nimotuzumab-based bispecific antibody

Kd [1]: 0.0114 µM
Response [1]: 0.194
koff [1]: 0.000627 s⁻¹
kon [1]: 55100 M⁻¹ s⁻¹
Kd [2]: 0.151 µM
Response [2]: 0.294
koff [2]: 0.0308 s⁻¹
kon [2]: 204000 M⁻¹ s⁻¹
B2: SI-1X26 (bispecific antibody)
heavy: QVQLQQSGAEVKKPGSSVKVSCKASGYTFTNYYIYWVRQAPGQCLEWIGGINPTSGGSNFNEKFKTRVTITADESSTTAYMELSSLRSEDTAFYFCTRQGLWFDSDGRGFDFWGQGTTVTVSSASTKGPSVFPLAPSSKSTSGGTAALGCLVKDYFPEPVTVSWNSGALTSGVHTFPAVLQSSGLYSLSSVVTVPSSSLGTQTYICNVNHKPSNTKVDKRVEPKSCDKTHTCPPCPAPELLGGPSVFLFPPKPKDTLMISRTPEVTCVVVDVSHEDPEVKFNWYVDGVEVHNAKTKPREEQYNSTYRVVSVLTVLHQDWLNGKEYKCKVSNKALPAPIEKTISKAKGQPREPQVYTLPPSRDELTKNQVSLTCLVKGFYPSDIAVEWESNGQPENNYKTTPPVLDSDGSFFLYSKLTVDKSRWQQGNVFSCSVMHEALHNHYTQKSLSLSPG
light: DIQMTQSPSSLSASVGDRVTITCRSSQNIVHSNGNTYLDWYQQTPGKAPKLLIYKVSNRFSGVPSRFSGSGSGTDFTFTISSLQPEDIATYYCFQYSHVPWTFGCGTKLQITRTVAAPSVFIFPPSDEQLKSGTASVVCLLNNFYPREAKVQWKVDNALQSGNSQESVTEQDSKDSTYSLSSTLTLSKADYEKHKVYACEVTHQGLSSPVTKSFNRGECGGGGSGGGGSGGGGSQVQLQESGGGLVKPGGSLSLSCAASGFTFSSYWMSWVRQAPGKGLEWVANINRDGSASYYVDSVKGRFTISRDDAKNSLYLQMNSLRAEDTAVYYCARDRGVGYFDLWGRGTLVTVSSGGGGSGGGGSGGGGSQSALTQPASVSGSPGQSITISCTGTSSDVGGYNFVSWYQQHPGKAPKLMIYDVSDRPSGVSDRFSGSKSGNTASLIISGLQADDEADYYCSSYGSSSTHVIFGGGTKVTVL
notes: scFv on the C-terminus of the light chain; also called EGFRxHER3 bispecific antibody; nimotuzumab-based bispecific antibody
